Reference: publication PMC4027190

Assay: western blot (and ELISA for N38S) of culture media
Conditions: glycan lost; control: wild type

B1: matrix metalloproteinase-9 (MMP-9): mS38 (protein)
parent chain: MSLWQPLVLVLLVLGCCFAAPRQRQSTLVLFPGDLRTNLTDRQLAEEYLYRYGYTRVAEMRGESKSLGPALLLLQKQLSLPETGELDSATLKAMRTPRCGVPDLGRFQTFEGDLKWHHHNITYWIQNYSEDLPRAVIDDAFARAFALWSAVTPLTFTRVYSRDADIVIQFGVAEHGDGYPFDGKDGLLAHAFPPGPGIQGDAHFDDDELWSLGKGVVVPTRFGNADGAACHFPFIFEGRSYSACTTDGRSDGLPWCSTTANYDTDDRFGFCPSERLYTQDGNADGKPCQFPFIFQGQSYSACTTDGRSDGYRWCATTANYDRDKLFGFCPTRADSTVMGGNSAGELCVFPFTFLGKEYSTCTSEGRGDGRLWCATTSNFDSDKKWGFCPDQGYSLFLVAAHEFGHALGLDHSSVPEALMYPMYRFTEGPPLHKDDVNGIRHLYGPRPEPEPRPPTTTTPQPTAPPTVCPTGPPTVHPSERPTAGPTGPPSAGPTGPPTAGPSTATTVPLSPVDDACNVNIFDAIAEIGNQLYLFKDGKYWRFSEGRGSRPQGPFLIADKWPALPRKLDSVFEERLSKKLFFFSGRQVWVYTGASVLGPRRLDKLGLGADVAQVTGALRSGRGKMLLFSGRRLWRFDVKAQMVDPRSASEVDRMFPGVPLDTHDVFQYREKAYFCQDRFYWRVSSRSELNQVDQVGYVTYDILQCPED
Q: For B1, which expression_or_secretion is on record?
A: The expression_or_secretion was “no change”.
